Measured values from PMC11183095, “PKM2 functions as a histidine kinase to phosphorylate PGAM1 and increase glycolysis shunts in cancer” (The EMBO Journal, 2024).

Target: T1, Recombinant GST-PKM2 (human, UniProt P14618 1-531)
T1 construct: pyruvate kinase M2 (PKM2), human cDNA in pGEX-6P-1; source: E. coli BL21 (DE3), purified (glutathione resin, dialysed in PBS)
Assay: pull-down; recombinant His-PGAM1 immobilised on Ni-beads, mixed with recombinant GST-PKM2 or GST-ENO1; eluate analysed by western blot
Conditions: both partners purified

T1 sequence (P14618 whole entry): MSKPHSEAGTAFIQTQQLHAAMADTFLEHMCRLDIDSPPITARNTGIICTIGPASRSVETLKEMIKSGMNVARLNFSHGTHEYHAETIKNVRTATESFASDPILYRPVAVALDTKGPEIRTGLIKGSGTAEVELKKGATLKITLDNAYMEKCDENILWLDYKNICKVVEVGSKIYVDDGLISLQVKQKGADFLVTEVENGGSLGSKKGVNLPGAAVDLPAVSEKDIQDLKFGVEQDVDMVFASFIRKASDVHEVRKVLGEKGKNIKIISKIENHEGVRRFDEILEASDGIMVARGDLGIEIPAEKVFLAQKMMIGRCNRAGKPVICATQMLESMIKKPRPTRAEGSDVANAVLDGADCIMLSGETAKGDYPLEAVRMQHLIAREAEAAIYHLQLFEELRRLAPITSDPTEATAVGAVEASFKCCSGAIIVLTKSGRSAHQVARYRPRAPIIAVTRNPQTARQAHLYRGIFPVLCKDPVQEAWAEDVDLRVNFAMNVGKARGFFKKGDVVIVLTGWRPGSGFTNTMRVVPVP

B1: Recombinant His-PGAM1 (enzyme, human)
chain: MAAYKLVLIRHGESAWNLENRFSGWYDADLSPAGHEEAKRGGQALRDAGYEFDICFTSVQKRAIRTLWTVLDAIDQMWLPVVRTWRLNERHYGGLTGLNKAETAAKHGEAQVKIWRRSYDVPPPPMEPDHPFYSNISKDRRYADLTEDQLPSCESLKDTIARALPFWNEEIVPQIKEGKRVLIAAHGNSLRGIVKHLEGLSEEAIMELNLPTGIPIVYELDKNLKPIKPMQFLGDEETVRKAMEAVAAQGKAKK
notes: phosphoglycerate mutase 1 (PGAM1), human cDNA in pET-28a; also called His-tagged PGAM1; source: E. coli BL21 (DE3), purified (Ni resin, dialysed in PBS)
- binding result: binds
